# Results: patent US20250144207A1, “COMBINATION THERAPY COMPRISING ANTI-CCR9 ANTIBODY AND VINCRISTINE FOR CANCER” (SUNROCK BIOPHARMA S.L., priority 2022, published 2025)
# B1: SRB1 anti-CCR9 antibody (antibody, V domains shown)
# VH: EVQLVESGGGLVKPGGSLRLSCAASGFTFSKFWMNWVRQAPGKGLEWVGEIRLKSNNYATHYAESVKGRFTISRDDSKNTLYLQMNSLKTEDTAVYYCTSDGWFAYWGQGTLVTVSS
# VL: DVQMTQSPSSLSASVGDRVTITCRSSQSLVHSNGNTYLNWYQQKPGKAPKLLIYKVSNRFSGVPSRFSGSGSGTDFTLTISSLQPEDFATYYCSQSTHFPRTFGGGTKVEIK
# notes: also called CCR9-targeted antibody (SRB1)
# Tests used:
# [1] = system: MOLT4-GFP xenografts; experiment: Survival of NSG mice with MOLT4-GFP xenografts, SRB1 combined with chemotherapy agents; assay type: in vivo; details: for Median survival: NSG mice, MOLT4-GFP i.v., SRB1 or isotype 4 mg/kg i.p. x4 weekly, vincristine 0.6 mg/kg i.v. day 5, dexamethasone 50 μg/mouse/dose days 5-9; for # censored subjects / # deaths: same survival study, 10 animals/group
# [2] = target: T1, CCR9 (C-C chemokine receptor type 9) (human, UniProt P51686 1-369, limits assumed); experiment: CCR9 binding in the presence of CCL25; no protocol given
# T1 construct: also called human chemokine receptor CCR9
# T1 sequence (looked up): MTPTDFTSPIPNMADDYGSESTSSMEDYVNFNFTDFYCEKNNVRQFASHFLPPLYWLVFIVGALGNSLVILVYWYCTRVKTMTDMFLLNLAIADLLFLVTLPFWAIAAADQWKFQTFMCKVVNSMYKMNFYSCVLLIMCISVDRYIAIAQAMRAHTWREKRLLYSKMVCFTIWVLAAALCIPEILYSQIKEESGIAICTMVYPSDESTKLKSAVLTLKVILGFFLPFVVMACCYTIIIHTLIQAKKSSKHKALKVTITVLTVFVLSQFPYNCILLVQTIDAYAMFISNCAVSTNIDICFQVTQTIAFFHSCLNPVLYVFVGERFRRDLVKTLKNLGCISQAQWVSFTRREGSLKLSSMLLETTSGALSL
# [3] = target: T2, CCR9 (Homo sapiens, UniProt P51686); experiment: CCR9 binding in the presence of CCL25, measured by flow cytometry
# T2 sequence (P51686 1-369): T1 sequence (looked up)
# Description: Therefore, like “91R” and “92R”, the “SRB1” is preferred for use in the treatment of a condition in which CCL25 concentration may be elevated, including in the treatment of certain cancers as described in detail herein.
# [4] = system: CCR9+ lymphocyte; experiment: Antibody mediated complement-dependent cytotoxicity (CDC); assay type: cell-based
# Description: The present inventors have, for example, observed antibody mediated complement-dependent cytotoxicity (CDC) utilizing anti-CCR9 antibodies such as “91R”, “92R” and “SRB1” described above.
Molecule,Median survival [1] [days],# censored subjects [1],# deaths [1],binding result [2],CCR9 binding in the presence of the ligand CCL25 [3],"survival, given as IC50 ([1]; SRB1 at 4 mg/kg vs Control (48 days)) [days]",complement-dependent cytotoxicity (CDC) [4]
"C[C@@H]1C[C@H]2[C@@H]3CCC4=CC(=O)C=C[C@]4(C)[C@@]3(F)[C@@H](O)C[C@]2(C)[C@@]1(O)C(=O)CO [DX, dexamethasone]",47.7,10,10,–,–,–,–
"CC[C@]1(O)C[C@H]2CN(CCc3c([nH]c4ccccc34)[C@@](C(=O)OC)(c3cc4c(cc3OC)N(C=O)[C@H]3[C@@](O)(C(=O)OC)[C@H](OC(C)=O)[C@]5(CC)C=CCN6CC[C@]43[C@@H]65)C2)C1 [VX, vincristine]",67.9,10,10,–,–,–,–
B1,66.2,10,10,binds,exhibit CCR9 binding in the presence of CCL25,70,observed
